Measured values: the supplement of paper PMC7125110
± gives the standard error. For some of these results: Fewer inactive variants are shown than the library holds.

B1: glmS ribozyme (parent)
chain: AUAAAAGCGCCAGAACUACAGAAAUGUAGUUGACGAGGAGGAGGUUUAUCGAAUUUUCGGCGGAUGCCUCCAAA

Tests used:
Settings in all cases: with glucosamine-6-phosphate
[1] = variants of: B1; assay: kcat; higher = faster cleavage; RNA array
How it was run: (§1)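 A hybridised Cy3 probe tracked barcoded ribozyme variants, transcribed in situ by E. coli RNA polymerase on sequenced MiSeq chips, at 37 °C. The variants received 40 μM to 10 mM glucosamine-6-phosphate in HEPES/KCl/Mg(OAc)2 buffer. kobs came from decay fits and kcat and KM from weighted Michaelis–Menten fits.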

[2] = variants of: B1; assay: KM; higher = weaker cofactor use; RNA array
How it was run: as §1

[3] = variants of: B1; assay: self-cleavage kobs at 40 uM GlcN6P; higher = faster cleavage; RNA array
How it was run: as §1

[4] = variants of: B1; assay: self-cleavage kobs at 160 uM GlcN6P; higher = faster cleavage; RNA array
How it was run: as §1

[5] = variants of: B1; assay: self-cleavage kobs at 640 uM GlcN6P; higher = faster cleavage; RNA array
How it was run: as §1

[6] = variants of: B1; assay: self-cleavage kobs at 2500 uM GlcN6P; higher = faster cleavage; RNA array
How it was run: as §1

[7] = variants of: B1; assay: self-cleavage kobs at 10000 uM GlcN6P; higher = faster cleavage; RNA array
How it was run: as §1

Variant	kcat [1]	KM [2]	self-cleavage kobs at 40 uM GlcN6P [3]	self-cleavage kobs at 160 uM GlcN6P [4]	self-cleavage kobs at 640 uM GlcN6P [5]	self-cleavage kobs at 2500 uM GlcN6P [6]	self-cleavage kobs at 10000 uM GlcN6P [7]
A39C U55C	0.00774 ± 0.0022 s⁻¹	3010 ± 1100 µM	0.000127 ± 1.4e-05 s⁻¹	0.000325 ± 5e-05 s⁻¹	0.00144 ± 0.00027 s⁻¹	0.00268 ± 0.00051 s⁻¹	0.0067 ± 0.00081 s⁻¹
G63U C67U	< 1e-05 s⁻¹		< 1e-05 s⁻¹		< 1e-05 s⁻¹		
A6U G41U	4.92e-05 ± 3.2e-06 s⁻¹						
G37A U54A U65G	0.000309 ± 7.3e-05 s⁻¹	5170 ± 1900 µM			4.03e-05 ± 1.2e-05 s⁻¹	9.16e-05 ± 2e-05 s⁻¹	0.000215 ± 5e-05 s⁻¹
A12U	0.0933 ± 0.014 s⁻¹	1340 ± 230 µM	0.00275 ± 4.9e-05 s⁻¹	0.00899 ± 0.00054 s⁻¹	0.0283 ± 0.0012 s⁻¹	0.049 ± 0.0042 s⁻¹	0.0963 ± 0.0052 s⁻¹
G13A U57C	7.9e-05 ± 5.5e-06 s⁻¹	4540 ± 780 µM	< 1e-05 s⁻¹			2.88e-05 ± 9.2e-06 s⁻¹	5.42e-05 ± 8.5e-06 s⁻¹
G29A A42G	0.00587 ± 0.0021 s⁻¹	1120 ± 510 µM	0.00025 ± 4.4e-05 s⁻¹	0.000587 ± 0.00015 s⁻¹	0.00227 ± 0.00083 s⁻¹	0.00308 ± 0.0011 s⁻¹	0.00757 ± 0.0021 s⁻¹
G66C C71A	0.000163 ± 2.2e-05 s⁻¹					0.000143 ± 1.5e-05 s⁻¹	0.000132 ± 2.2e-05 s⁻¹
G29C C67G	8e-05 ± 4.8e-06 s⁻¹	1430 ± 280 µM				4.84e-05 ± 1.1e-05 s⁻¹	7.18e-05 ± 1.4e-05 s⁻¹
G29C U30G	0.00361 ± 0.0014 s⁻¹		8.92e-05 ± 1.8e-05 s⁻¹	0.000309 ± 6.9e-05 s⁻¹	0.00138 ± 0.00041 s⁻¹	0.00147 ± 0.00036 s⁻¹	0.00472 ± 0.00086 s⁻¹
U57G G66A	2.15e-05 ± 3.2e-06 s⁻¹		< 1e-05 s⁻¹				
C10A G51U G63C	1.02e-05 ± 4.6e-07 s⁻¹	731 ± 360 µM				< 1e-05 s⁻¹	
U47A C70A	0.000263 ± 6.7e-05 s⁻¹	858 ± 410 µM		3.52e-05 ± 1.2e-05 s⁻¹	0.000122 ± 1.9e-05 s⁻¹	0.000186 ± 3.4e-05 s⁻¹	
C11U U45G	0.000317 ± 6.8e-05 s⁻¹					0.000172 ± 6.6e-05 s⁻¹	0.000222 ± 4.3e-05 s⁻¹
G40A G66A	0.00833 ± 0.0037 s⁻¹		0.000144 ± 2e-05 s⁻¹	0.000201 ± 8.8e-05 s⁻¹	0.00165 ± 0.00041 s⁻¹		0.00641 ± 0.00098 s⁻¹
A39G C67G	0.00311 ± 0.00098 s⁻¹	602 ± 300 µM	0.000189 ± 4.5e-05 s⁻¹	0.000603 ± 0.00015 s⁻¹	0.00174 ± 0.00035 s⁻¹	0.00535 ± 0.0012 s⁻¹	0.00223 ± 0.00066 s⁻¹

Variant	kcat [1]	KM [2]	self-cleavage kobs at 40 uM GlcN6P [3]	self-cleavage kobs at 160 uM GlcN6P [4]	self-cleavage kobs at 640 uM GlcN6P [5]	self-cleavage kobs at 2500 uM GlcN6P [6]	self-cleavage kobs at 10000 uM GlcN6P [7]
A12U A42C	2.16e-05 ± 2.9e-06 s⁻¹		< 1e-05 s⁻¹			1.75e-05 ± 7.1e-06 s⁻¹	1.89e-05 ± 8.5e-06 s⁻¹
U46A U65C	0.000937 ± 0.00023 s⁻¹	2440 ± 1100 µM		4.37e-05 ± 1.8e-05 s⁻¹	0.00029 ± 6.2e-05 s⁻¹	0.000426 ± 8.2e-05 s⁻¹	0.000782 ± 0.00014 s⁻¹
A12C U46A	0.00133 ± 0.00029 s⁻¹	2440 ± 900 µM		0.000101 ± 2.8e-05 s⁻¹	0.000302 ± 4.8e-05 s⁻¹	0.000533 ± 9.6e-05 s⁻¹	0.00122 ± 0.00017 s⁻¹
C34A G38U	< 1e-05 s⁻¹				< 1e-05 s⁻¹		
U31C C70G	5.96e-05 ± 8.1e-06 s⁻¹				3.34e-05 ± 7.2e-06 s⁻¹	6.15e-05 ± 7.8e-06 s⁻¹	4.89e-05 ± 8.3e-06 s⁻¹
A33U G66C	1.44e-05 ± 2.1e-06 s⁻¹	3040 ± 1500 µM					
U49G A53U	0.00103 ± 0.00011 s⁻¹	4490 ± 760 µM		2.84e-05 ± 8.8e-06 s⁻¹	0.00014 ± 1.9e-05 s⁻¹	0.000364 ± 5.6e-05 s⁻¹	0.000709 ± 8.3e-05 s⁻¹
A64G C68A	< 1e-05 s⁻¹						
U47A C67G	0.000644 ± 7e-05 s⁻¹	2020 ± 350 µM		5.63e-05 ± 9.9e-06 s⁻¹	0.000147 ± 1.3e-05 s⁻¹	0.000379 ± 5.1e-05 s⁻¹	0.000534 ± 6.4e-05 s⁻¹
U47A C67U	0.00772 ± 0.0031 s⁻¹		0.00025 ± 3.1e-05 s⁻¹	0.000428 ± 7.1e-05 s⁻¹	0.003 ± 0.00062 s⁻¹	0.00497 ± 0.0016 s⁻¹	0.00638 ± 0.00092 s⁻¹
U55G U69G	7.83e-05 ± 1.5e-05 s⁻¹			8.02e-05 ± 1.9e-05 s⁻¹	8.9e-05 ± 1.9e-05 s⁻¹		6.23e-05 ± 1.7e-05 s⁻¹
A53U C67A	0.00367 ± 0.00077 s⁻¹	785 ± 230 µM	0.000214 ± 2.6e-05 s⁻¹	0.000559 ± 8.4e-05 s⁻¹	0.0014 ± 0.00022 s⁻¹		0.00376 ± 0.00054 s⁻¹
A6C U69C	3.1e-05 ± 9.9e-06 s⁻¹		< 1e-05 s⁻¹			4.93e-05 ± 2e-05 s⁻¹	
U47C G66U	2.83e-05 ± 1.3e-05 s⁻¹		< 1e-05 s⁻¹				
A14G G66U	0.00542 ± 0.00096 s⁻¹	2220 ± 560 µM	0.000114 ± 1.2e-05 s⁻¹	0.00039 ± 4e-05 s⁻¹	0.00094 ± 0.00012 s⁻¹	0.00287 ± 0.00033 s⁻¹	0.00464 ± 0.0004 s⁻¹
G29C A53G	0.00235 ± 0.00053 s⁻¹	2630 ± 900 µM	4.79e-05 ± 7.8e-06 s⁻¹	0.000154 ± 2.3e-05 s⁻¹	0.000398 ± 5.6e-05 s⁻¹	0.000948 ± 0.00014 s⁻¹	0.00209 ± 0.00021 s⁻¹
